In US20160287687A1 (IMMATICS BIOTECHNOLOGIES, published 2016):

B1: ALIVSLPYL (SEQ ID NO: 1) (peptide)
peptide: ALIVSLPYL
notes: source gene SLC17A3; also called SLC17A3-001

target: T1, HLA-A*02:01 (human); test: UV-ligand exchange + anti-b2m ELISA; peptide exchange yield grade (+ >=10%, ++ >=20%, +++ >=50, ++++ >=75%)
T1 construct: MHC monomers first loaded with a UV-sensitive peptide (not identified) that is cleaved by UV light and exchanged for the test peptide; captured on streptavidin plates, detected with anti-β2m; also called peptide-receptive MHC molecules; MHC class I
From the text: Candidate peptides for T cell based therapies according to the present invention were further tested for their MHC binding capacity (affinity). The individual peptide-MHC complexes were produced by UV-ligand exchange, where a UV-sensitive peptide is cleaved upon UV-irradiation, and exchanged with the peptide of interest as analyzed. Only peptide candidates that can effectively bind and stabilize the peptide-receptive MHC molecules prevent dissociation of the MHC complexes. To determine the yield of the exchange reaction, an ELISA was performed based on the detection of the light chain (β2m) of stabilized MHC complexes. The assay was performed as generally described in Rodenko et al. (Rodenko et al., 2006).
96 well MAXISorp plates (NUNC) were coated over night with 2 ug/ml streptavidin in PBS at room temperature, washed 4× and blocked for 1h at 37° C. in 2% BSA containing blocking buffer. Refolded HLA-A*02:01/MLA-001 monomers served as standards, covering the range of 15-500 ng/ml. Peptide-MHC monomers of the UV-exchange reaction were diluted 100 fold in blocking buffer. Samples were incubated for 1 h at 37° C., washed four times, incubated with 2 ug/ml HRP conjugated anti-β2m for 1h at 37° C., washed again and detected with TMB solution that is stopped with […]. Absorption was measured at 450 nm. Candidate peptides that show a high exchange yield (preferably higher than 50%, most preferred higher than 75%) are generally preferred for a generation and production of antibodies or fragments thereof, and/or T cell receptors or fragments thereof, as they show sufficient avidity to the MHC molecules and prevent dissociation of the MHC complexes.

| Binder | peptide exchange yield [%] |
| --- | --- |
| SLFGKKYIL (source gene FHL2) [SLFGKKYIL (SEQ ID NO: 36)] | 20 to 50 |
| FTLGTTVFL (source gene NDUFC1) [FTLGTTVFL (SEQ ID NO: 24)] | 50 to 75 |
| LLVPAHLVAA (source gene ESM1) [LLVPAHLVAA (SEQ ID NO: 25)] | 20 to 50 |
| YLALILPVL (source gene SLC16A4) [YLALILPVL (SEQ ID NO: 55)] | 20 to 50 |
| YLYPNLTRL (source gene SLC6A13) [YLYPNLTRL (SEQ ID NO: 5)] | 20 to 50 |
| AVANTTFTV (source gene HSD3B7) [AVANTTFTV (SEQ ID NO: 20)] | 20 to 50 |
| LLFDHLEPIEL (source gene RASGRP3) [LLFDHLEPIEL (SEQ ID NO: 112)] | 50 to 75 |
| VLAPVILML (source gene ABCC3) [VLAPVILML (SEQ ID NO: 37)] | 20 to 50 |
| VLIVEVPGV (source gene ADCY5) [VLIVEVPGV (SEQ ID NO: 49)] | 50 to 75 |
| ILAQQVHAL (source gene KIF12) [ILAQQVHAL (SEQ ID NO: 17)] | 50 to 75 |
| ALVAKGLVQA (source gene AKR1A1) [ALVAKGLVQA (SEQ ID NO: 54)] | 20 to 50 |
| ALFEGVVRQI (source gene RRAD) [ALFEGVVRQI (SEQ ID NO: 104)] | 50 to 75 |
| YLKDELDEL (source gene SOGA2) [YLKDELDEL (SEQ ID NO: 43)] | 50 to 75 |
| YLLNLNHLGL (source gene TRAM1) [YLLNLNHLGL (SEQ ID NO: 39)] | 50 to 75 |
| ILMDFSNSM (source gene ITGB4) [ILMDFSNSM (SEQ ID NO: 56)] | 50 to 75 |
| SLQKEILYL (source gene ATG2B) [SLQKEILYL (SEQ ID NO: 57)] | 20 to 50 |
| FLVDFEQSHL (source gene CYP2J2) [FLVDFEQSHL (SEQ ID NO: 58)] | ≥ 75 |
| SILDAVQRV (source gene PXDNL) [SILDAVQRV (SEQ ID NO: 52)] | 20 to 50 |
| VLISVLQAI (source gene CYFIP2) [VLISVLQAI (SEQ ID NO: 108)] | 20 to 50 |
| TLLETEMLL (source gene CEP44) [TLLETEMLL (SEQ ID NO: 111)] | 20 to 50 |
| ILLDLEQAL (source gene CUL7) [ILLDLEQAL (SEQ ID NO: 29)] | 50 to 75 |
| ILWREVVTL (source gene HSF4) [ILWREVVTL (SEQ ID NO: 2)] | 50 to 75 |

| Binder | peptide exchange yield [%] |
| --- | --- |
| YIQEVVQYI (source gene PLCB1) [YIQEVVQYI (SEQ ID NO: 23)] | 50 to 75 |
| YLWSRVEKL (source gene LRRK2) [YLWSRVEKL (SEQ ID NO: 109)] | ≥ 75 |
| ALLTETIFL (source gene LRRK2) [ALLTETIFL (SEQ ID NO: 14)] | 20 to 50 |
| NLWPMILTL (source gene ITGA3) [NLWPMILTL (SEQ ID NO: 51)] | 50 to 75 |
| ILIKHLVKV (source gene ARHGAP42) [ILIKHLVKV (SEQ ID NO: 15)] | 20 to 50 |
| YVLDLAAKV (source gene ACLY) [YVLDLAAKV (SEQ ID NO: 18)] | 50 to 75 |
| LLDLHSYLL (source gene MARCH6) [LLDLHSYLL (SEQ ID NO: 110)] | 20 to 50 |
| FIADLVVGL (source genes ENO1, ENO2, ENO3) [FIADLVVGL (SEQ ID NO: 28)] | 20 to 50 |
| FIADVVEKI (source genes HTRA1, HTRA3) [FIADVVEKI (SEQ ID NO: 33)] | 20 to 50 |
| FLSPPLPSV (source genes BCKDHA, TMEM91) [FLSPPLPSV (SEQ ID NO: 22)] | 50 to 75 |
| VVASNIMEV (source gene PFKFB3) [VVASNIMEV (SEQ ID NO: 48)] | 20 to 50 |
| ILWKDIEYV (source gene SYT9) [ILWKDIEYV (SEQ ID NO: 60)] | 50 to 75 |
| YIQEHLLQI (source gene IVNS1ABP) [YIQEHLLQI (SEQ ID NO: 40)] | 50 to 75 |
| VLHSLQTQL (source gene ANGPTL4) [VLHSLQTQL (SEQ ID NO: 35)] | 20 to 50 |
| QLFYTKIFL (source gene PLOD1) [QLFYTKIFL (SEQ ID NO: 30)] | 20 to 50 |
| RLIQGDQILSV (source gene INADL) [RLIQGDQILSV (SEQ ID NO: 21)] | 20 to 50 |
| ALDPSGNQLI (source gene SEMA5B) [ALDPSGNQLI (SEQ ID NO: 12)] | 20 to 50 |
| FIQTEAPKEV (source gene RGS5) [FIQTEAPKEV (SEQ ID NO: 11)] | 20 to 50 |
| GLSEVLVQI (source gene MICAL3) [GLSEVLVQI (SEQ ID NO: 46)] | 50 to 75 |
| GLLKTLQKL (source gene CLIC4) [GLLKTLQKL (SEQ ID NO: 41)] | 20 to 50 |
| FLSQDIITV (source gene REN) [FLSQDIITV (SEQ ID NO: 4)] | 50 to 75 |
| FLLEIRQTL (source gene SNX13) [FLLEIRQTL (SEQ ID NO: 53)] | 20 to 50 |

| Binder | peptide exchange yield [%] |
| --- | --- |
| RLLGEVQAL (source gene HSF4) [RLLGEVQAL (SEQ ID NO: 3)] | 20 to 50 |
| B1 | 50 to 75 |
| ALLGIPLTL (source genes KCNK3, KCNK15) [ALLGIPLTL (SEQ ID NO: 45)] | 50 to 75 |
| VILDTGTIQL (source gene NAT8) [VILDTGTIQL (SEQ ID NO: 42)] | 20 to 50 |
| SLFDWNVKL (source gene UBE2QL1) [SLFDWNVKL (SEQ ID NO: 113)] | 50 to 75 |
| VLMDLKALLL (source gene DDX41) [VLMDLKALLL (SEQ ID NO: 107)] | 50 to 75 |
| ELNNQNFYL (source gene CIT) [ELNNQNFYL (SEQ ID NO: 34)] | 50 to 75 |
| FMPEELPQL (source gene THNSL2) [FMPEELPQL (SEQ ID NO: 16)] | 20 to 50 |
| SLSDHIVLL (source gene ITGA3) [SLSDHIVLL (SEQ ID NO: 50)] | 20 to 50 |
| KLQDGLLHI (source gene TIMP1) [KLQDGLLHI (SEQ ID NO: 103)] | 20 to 50 |
| LLDPGSLQL (source gene SYNDIG1L) [LLDPGSLQL (SEQ ID NO: 19)] | 20 to 50 |
| KLLQNNYGL (source gene RGS5) [KLLQNNYGL (SEQ ID NO: 10)] | 20 to 50 |
| TLAEVRAVQEI (source gene SMYD2) [TLAEVRAVQEI (SEQ ID NO: 47)] | 50 to 75 |
| KIMAQILTV (source gene LRRK2) [KIMAQILTV (SEQ ID NO: 13)] | 50 to 75 |
| VLFGLDPAVIKV (source gene HSPA12A) [VLFGLDPAVIKV (SEQ ID NO: 31)] | 50 to 75 |
| VLMDLKALL (source gene DDX41) [VLMDLKALL (SEQ ID NO: 106)] | 50 to 75 |
| SLKNNVVSV (source gene TGFBI) [SLKNNVVSV (SEQ ID NO: 59)] | 50 to 75 |
| ALFSFVTAL (source gene TTYH3) [ALFSFVTAL (SEQ ID NO: 44)] | 50 to 75 |
| ALAVNISAA (source gene CCT6A) [ALAVNISAA (SEQ ID NO: 114)] | 50 to 75 |
| SLSDLLVSL (source gene OPN3) [SLSDLLVSL (SEQ ID NO: 27)] | 50 to 75 |
| ALADLDELLIRA (source gene HSPG2) [ALADLDELLIRA (SEQ ID NO: 105)] | 50 to 75 |
| VLLDTILQL (source gene HSF2BP) [VLLDTILQL (SEQ ID NO: 38)] | 50 to 75 |
